From article PMC10643145, “Structure and activation of the RING E3 ubiquitin ligase TRIM72 on the membrane” (Nature Structural & Molecular Biology, 2023)
Where a chain is given by its changes, count along the chain named.

Tests used:
[1] = target: the molecule itself; experiment: cross-linking; time-dependent cross-linking of TRIM72 WT purified from mammalian cells (copurified with endogenous microvesicles)
[2] = target: the molecule itself; experiment: SEC-MALS; Superdex 200 Increase 10/300 GL; 50 mM Tris-HCl pH 8.0, 300 mM NaCl, 2 mM TCEP; TRIM72 WT at 11.2, 5.6 and 2.8 mg/ml; dimer in solution
[3] = target: the molecule itself; experiment: cryo-EM structure; cryo-ET and subtomogram averaging of proteoliposomes (80 mol% DOPS, 20 mol% cholesterol); 50 mM Tris-HCl pH 8.0, 150 mM NaCl, 1 mM TCEP; higher-order assembly of dimers on the lipid bilayer

B1: human TRIM72 wild type, 2× Strep-tagged (natural protein, UniProt Q6ZMU5 1-477, looked up)
chain: MSAAPGLLHQELSCPLCLQLFDAPVTAECGHSFCRACLGRVAGEPAADGTVLCPCCQAPTRPQALSTNLQLARLVEGLAQVPQGHCEEHLDPLSIYCEQDRALVCGVCASLGSHRGHRLLPAAEAHARLKTQLPQQKLQLQEACMRKEKSVAVLEHQLVEVEETVRQFRGAVGEQLGKMRVFLAALEGSLDREAERVRGEAGVALRRELGSLNSYLEQLRQMEKVLEEVADKPQTEFLMKYCLVTSRLQKILAESPPPARLDIQLPIISDDFKFQVWRKMFRALMPALEELTFDPSSAHPSLVVSSSGRRVECSEQKAPPAGEDPRQFDKAVAVVAHQQLSEGEHYWEVDVGDKPRWALGVIAAEAPRRGRLHAVPSQGLWLLGLREGKILEAHVEAKEPRALRSPERRPTRIGLYLSFGDGVLSFYDASDADALVPLFAFHERLPRPVYPFFDVCWHDKGKNAQPLLLVGPEGAEA
notes: TRIM72 (MG53), human, wild type, full length; Copurified with endogenous microvesicles of about 100 nm; also called TRIM72 WT purified from mammalian cells; mammalian-expressed human TRIM72; source: HEK293T, transfected (polyethyleneimine), purified (StrepTrap HP, SEC on Superose 6 Increase)
binding result [1]: binds

B2: mouse TRIM72 wild type (tripartite motif-containing protein 72) (natural protein, UniProt Q1XH17 1-477, looked up)
chain: MSAAPGLLRQELSCPLCLQLFDAPVTAECGHSFCRACLIRVAGEPAADGTVACPCCQAPTRPQALSTNLQLSRLVEGLAQVPQGHCEEHLDPLSIYCEQDRTLVCGVCASLGSHRGHRLLPAAEAQARLKTQLPQQKMQLQEACMRKEKTVAVLEHQLVEVEETVRQFRGAVGEQLGKMRMFLAALESSLDREAERVRGDAGVALRRELSSLNSYLEQLRQMEKVLEEVADKPQTEFLMKFCLVTSRLQKILSESPPPARLDIQLPVISDDFKFQVWKKMFRALMPALEELTFDPSSAHPSLVVSSSGRRVECSDQKAPPAGEDTRQFDKAVAVVAQQLLSQGEHYWEVEVGDKPRWALGVMAADASRRGRLHAVPSQGLWLLGLRDGKILEAHVEAKEPRALRTPERPPARIGLYLSFADGVLAFYDASNPDVLTPIFSFHERLPGPVYPIFDVCWHDKGKNAQPLLLVGPEQEQA
notes: TRIM72 (MG53), Mus musculus, wild type, full length; Tight dimer in solution by SEC-MALS; higher-order assembly only on PS liposomes; also called TRIM72 WT; MG53; source: E. coli BL21(DE3), purified (AC, IEX, SEC); not shown: His6, N-terminal, cleaved; MBP, N-terminal, cleaved
stoichiometry N [2]: 2

B3: mouse TRIM72^M138R (natural protein, UniProt Q1XH17 1-477, looked up)
chain: B2 chain with M138R
notes: TRIM72, Mus musculus, mutation on the outer side of the H1 helix of the coiled-coil domain; source: E. coli BL21(DE3), purified (AC, IEX, SEC); not shown: His6, N-terminal, cleaved; MBP, N-terminal, cleaved
binding result [3]: binds
